The values that follow come from patent US20070259402.

The target of series [1] is precursor (proFIX) of FIX alone produced in the presence of PACE-SOL (BeneFIX®) (UniProt P00740).
Series [2] concerns proFIX-Fc (FIX-Fc retaining the FIX propeptide; dimer or monomer form not given).

precursor (proFIX) of FIX alone produced in the presence of PACE-SOL (BeneFIX®), sequence (P00740 whole entry, looked up): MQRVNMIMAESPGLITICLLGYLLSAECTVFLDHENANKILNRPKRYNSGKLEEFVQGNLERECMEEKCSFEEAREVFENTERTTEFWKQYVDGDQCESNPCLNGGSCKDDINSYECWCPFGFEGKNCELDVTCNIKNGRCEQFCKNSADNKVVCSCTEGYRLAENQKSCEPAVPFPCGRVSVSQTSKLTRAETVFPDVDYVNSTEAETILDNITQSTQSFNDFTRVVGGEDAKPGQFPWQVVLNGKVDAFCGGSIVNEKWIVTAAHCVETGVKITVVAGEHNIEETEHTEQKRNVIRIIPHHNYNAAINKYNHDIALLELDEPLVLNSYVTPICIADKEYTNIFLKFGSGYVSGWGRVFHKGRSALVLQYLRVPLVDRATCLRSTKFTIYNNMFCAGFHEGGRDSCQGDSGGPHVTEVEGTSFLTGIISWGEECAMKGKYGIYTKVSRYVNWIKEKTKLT

With “PACE-SOL (soluble form of human PACE, amino acids 1-715)”, the “peptide mapping (tryptic digest, LC/MS) for the propeptide indicator peptide (PIP)” value in series [1] was “FIX alone produced in the presence of PACE-SOL (BeneFIX®) appeared identical to FIX-Fc monomer produced with PC5 (FIG. 13), displaying no detectable PIP”. Further, in series [2], the “Propeptide Processing (Western blotting), CHO, transient transfection” value is given as “processes”.
